The supplement of paper PMC11246515
± gives the standard deviation of the averaged measurements.

Assay: total protein half-life in vivo (active degradation + dilution); higher = more stable protein
[1] = wild type E. coli NCM3722, growth: C-lim chemostat, doubling time 3 h
[2] = wild type E. coli NCM3722, growth: C-lim chemostat, doubling time 6 h
[3] = E. coli NCM3722 delta-clpP delta-lon delta-hslV, growth: N-lim chemostat, doubling time 6 h
[4] = E. coli NCM3722 delta-hslV, growth: N-lim chemostat, doubling time 6 h
[5] = E. coli NCM3722 delta-lon, growth: N-lim chemostat, doubling time 6 h
[6] = E. coli NCM3722 delta-smpB, growth: N-lim chemostat, doubling time 6 h
[7] = wild type E. coli NCM3722, growth: C-lim chemostat, doubling time 12 h
[8] = wild type E. coli NCM3722, growth: N-lim chemostat, doubling time 6 h
[9] = wild type E. coli NCM3722, growth: N-lim chemostat, doubling time 12 h
[10] = wild type E. coli NCM3722, growth: P-lim chemostat, doubling time 6 h
[11] = wild type E. coli NCM3722, growth: P-lim chemostat, doubling time 12 h
[12] = E. coli NCM3722 delta-clpP, growth: N-lim chemostat, doubling time 6 h

| Sequence | total protein half-life in vivo [1] [h] | total protein half-life in vivo [2] [h] | total protein half-life in vivo [3] [h] | total protein half-life in vivo [4] [h] | total protein half-life in vivo [5] [h] | total protein half-life in vivo [6] [h] | total protein half-life in vivo [7] [h] | total protein half-life in vivo [8] [h] | total protein half-life in vivo [9] [h] | total protein half-life in vivo [10] [h] | total protein half-life in vivo [11] [h] | total protein half-life in vivo [12] [h] |
| --- | --- | --- | --- | --- | --- | --- | --- | --- | --- | --- | --- | --- |
| MAAIAFIGLGQMGSPMASNLLQQGHQLRVFDVNAEAVRHLVDKGATPAANPAQAAKDAEFIITMLPNGDLVRNVLFGENGVCEGLSTDALVIDMSTIHPLQTDKLIADMQAKGFSMMDVPVGRTSANAITGTLLLLAGGTAEQVERATPILMAMGSELINAGGPGMGIRVKLINNYMSIALNALSAEAAVLCEALNLPFDVAVKVMSGTAAGKGHFTTSWPNKVLSGDLSPAFMIDLAHKDLGIALDVANQLHVPMPLGAASREVYSQARAAGRGRQDWSAILEQVRVSAGMTAKVKM [P0A9V8] | > 4 | 4.77 ± 1.8 | – | – | – | – | – | – | – | – | – | – |
| MAAKDRIQAIKQMVANDKKVTVSNLSGIFQVTEETIRRDLEKLEDEGFLTRTYGGAVLNTAMLTENIHFYKRASSFYEEKQLIARKALPFIDNKTTMAADSSSTVMELLKLLQDRSGLTLLTNSAEAIHVLAQSEIKVVSTGGELNKNTLSLQGRITKEIIRRYHVDIMVMSCKGLDINSGALDSNEAEAEIKKTMIRQATEVALLVDHSKFDRKAFVQLADFSHINYIITDKSPGAEWIAFCKDNNIQLVW | 2.93 ± 0.12 | 5.96 ± 0.83 | 5.6 ± 0.062 | 5.31 ± 0.24 | 5.25 ± 1.1 | 5.12 ± 0.069 | 9.64 ± 0.74 | 5.5 ± 0.2 | 9.92 ± 1.1 | 5.45 ± 0.52 | 13 ± 2.9 | – |
| MAAQGFLLIATFLLVLMVLARPLGSGLARLINDIPLPGTTGVERVLFRALGVSDREMNWKQYLCAILGLNMLGLAVLFFMLLGQHYLPLNPQQLPGLSWDLALNTAVSFVTNTNWQSYSGETTLSYFSQMAGLTVQNFLSAASGIAVIFALIRAFTRQSMSTLGNAWVDLLRITLWVLVPVALLIALFFIQQGALQNFLPYQAVNTVEGAQQLLPMGPVASQEAIKMLGTNGGGFFNANSSHPFENPTALTNFVQMLAIFLIPTALCFAFGEVMGDRRQGRMLLWAMSVIFVICVGVVMWAEVQGNPHLLALGTDSSINMEGKESRFGVLVSSLFAVVTTAASCGAVIAMHDSFTALGGMVPMWLMQIGEVVFGGVGSGLYGMMLFVLLAVFIAGLMIGRTPEYLGKKIDVREMKLTALAILVTPTLVLMGAALAMMTDAGRSAMLNPGPHGFSEVLYAVSSAANNNGSAFAGLSANSPFWNCLLAFCMFVGRFGVIIPVMAIAGSLVSKKSQAASSGTLPTHGPLFVGLLIGTVLLVGALTFIPALALGPVAEYLS | – | – | – | – | – | – | – | – | – | 5.85 | – | – |
| MAASTFFIPSVNVIGADSLTDAMNMMADYGFTRTLIVTDNMLTKLGMAGDVQKALEERNIFSVIYDGTQPNPTTENVAAGLKLLKENNCDSVISLGGGSPHDCAKGIALVAANGGDIRDYEGVDRSAKPQLPMIAINTTAGTASEMTRFCIITDEARHIKMAIVDKHVTPLLSVNDSSLMIGMPKSLTAATGMDALTHAIEAYVSIAATPITDACALKAVTMIAENLPLAVEDGSNAKAREAMAYAQFLAGMAFNNASLGYVHAMAHQLGGFYNLPHGVCNAVLLPHVQVFNSKVAAARLRDCAAAMGVNVTGKNDAEGAEACINAIRELAKKVDIPAGLRDLNVKEEDFAVLATNALKDACGFTNPIQATHEEIVAIYRAAM | – | – | – | – | – | – | – | – | – | 4.98 | 9.25 ± 2.1 | – |
| MADEIDAMALYRAWQQLDNGSCAQIRRVSEPDELRDIPAFYRLVQPFGWENPRHQQALLRMVFCLSAGKNVIRHQDKKSEQTTGISLGRALANSGRINERRIFQLIRADRTADMVQLRRLLTHAEPVLDWPLMARMLTWWGKRERQQLLEDFVLTTNKNA | – | – | 5.62 ± 1.1 | – | – | – | – | – | – | – | – | – |
| MADNKPELQRGLEARHIELIALGGTIGVGLFMGAASTLKWAGPSVLLAYIIAGLFVFFIMRSMGEMLFLEPVTGSFAVYAHRYMSPFFGYLTAWSYWFMWMAVGISEITAIGVYVQFWFPEMAQWIPALIAVALVALANLAAVRLYGEIEFWFAMIKVTTIIVMIVIGLGVIFFGFGNGGQSIGFSNLTEHGGFFAGGWKGFLTALCIVVASYQGVELIGITAGEAKNPQVTLRSAVGKVLWRILIFYVGAIFVIVTIFPWNEIGSNGSPFVLTFAKIGITAAAGIINFVVLTAALSGCNSGMYSCGRMLYALAKNRQLPAAMAKVSRHGVPVAGVAVSIAILLIGSCLNYIIPNPQRVFVYVYSASVLPGMVPWFVILISQLRFRRAHKAAIASHPFRSILFPWANYVTMAFLICVLIGMYFNEDTRMSLFVGIIFMLAVTAIYKVFGLNRHGKAHKLEE | – | 6.82 ± 0.17 | 6.95 | 6.01 ± 0.26 | 5.41 ± 0.71 | 5.99 ± 1.1 | 10.7 | 5.01 | 11.7 | > 8 | 12.7 ± 2.9 | – |
| MADTRPERRFTRIDRLPPYVFNITAELKMAARRRGEDIIDFSMGNPDGATPPHIVEKLCTVAQRPDTHGYSTSRGIPRLRRAISRWYQDRYDVEIDPESEAIVTIGSKEGLAHLMLATLDHGDTVLVPNPSYPIHIYGAVIAGAQVRSVPLVEGVDFFNELERAIRESYPKPKMMILGFPSNPTAQCVELEFFEKVVALAKRYDVLVVHDLAYADIVYDGWKAPSIMQVPGARDVAVEFFTLSKSYNMAGWRIGFMVGNKTLVSALARIKSYHDYGTFTPLQVAAIAALEGDQQCVRDIAEQYKRRRDVLVKGLHEAGWMVEMPKASMYVWAKIPEPYAAMGSLEFAKKLLNEAKVCVSPGIGFGDYGDTHVRFALIENRDRIRQAIRGIKAMFRADGLLPASSKHIHENAE | 2.43 ± 0.15 | 3.92 ± 0.59 | 4.48 ± 0.37 | 2.21 ± 0.2 | 2.27 ± 0.23 | 2.22 ± 0.062 | 7.44 ± 1.7 | 2.28 ± 0.1 | 2.92 ± 0.049 | 4.75 ± 0.82 | 7.31 ± 0.3 | 4.17 ± 0.25 |
| MAEAQNDPLLPGYSFNAHLVAGLTPIEANGYLDFFIDRPLGMKGYILNLTIRGQGVVKNQGREFVCRPGDILLFPPGEIHHYGRHPEAREWYHQWVYFRPRAYWHEWLNWPSIFANTGFFRPDEAHQPHFSDLFGQIINAGQGEGRYSELLAINLLEQLLLRRMEAINESLHPPMDNRVREACQYISDHLADSNFDIASVAQHVCLSPSRLSHLFRQQLGISVLSWREDQRISQAKLLLSTTRMPIATVGRNVGFDDQLYFSRVFKKCTGASPSEFRAGCEEKVNDVAVKLS [P0A9E0] | 0.747 ± 0.18 | 1.42 ± 0.059 | 5.38 ± 0.2 | 1.21 ± 0.4 | 1.26 ± 0.079 | 0.763 ± 0.18 | 1.81 ± 0.044 | 1.08 ± 0.057 | 1.34 ± 0.25 | – | 1.12 | 1.95 |
| MAEETIFSKIIRREIPSDIVYQDDLVTAFRDISPQAPTHILIIPNILIPTVNDVSAEHEQALGRMITVAAKIAEQEGIAEDGYRLIMNTNRHGGQEVYHIHMHLLGGRPLGPMLAHKGL [P0ACE7] | 3.32 ± 0.21 | 5.24 ± 0.32 | – | 4.88 ± 0.38 | – | 4.71 ± 0.36 | 8.75 ± 1.9 | 4.31 ± 0.051 | 7.64 ± 0.66 | 5.65 ± 0.32 | 12 ± 1.3 | 5.01 ± 0.59 |
